From patent publication US20220242952A1 (MorphoSys, published 2022)
Where “and” joins values, the source holds several entries; their conditions need not be identical. Equal values may be shown once.

Assays:
CD20 [1] = molecular target: CD20 (UniProt P11836); assay: cell-based or functional assay
CD20 [2] = molecular target: CD20 (UniProt P11836); assay: flow cytometry, QuantiBRITE PE quantitation, Toledo (DLBCL) cells
CD20 [3] = molecular target: CD20 (UniProt P11836); assay: flow cytometry, QuantiBRITE PE quantitation, MEC-1 (CLL) cells
CD20 [4] = molecular target: CD20 (UniProt P11836); assay: flow cytometry, QuantiBRITE PE quantitation, JVM-2 (MCL) cells
CD19 [5] = molecular target: T1, CD19 (human, UniProt P15391 20-556); assay: flow cytometry, QuantiBRITE PE quantitation, Toledo (DLBCL) cells
T1 sequence: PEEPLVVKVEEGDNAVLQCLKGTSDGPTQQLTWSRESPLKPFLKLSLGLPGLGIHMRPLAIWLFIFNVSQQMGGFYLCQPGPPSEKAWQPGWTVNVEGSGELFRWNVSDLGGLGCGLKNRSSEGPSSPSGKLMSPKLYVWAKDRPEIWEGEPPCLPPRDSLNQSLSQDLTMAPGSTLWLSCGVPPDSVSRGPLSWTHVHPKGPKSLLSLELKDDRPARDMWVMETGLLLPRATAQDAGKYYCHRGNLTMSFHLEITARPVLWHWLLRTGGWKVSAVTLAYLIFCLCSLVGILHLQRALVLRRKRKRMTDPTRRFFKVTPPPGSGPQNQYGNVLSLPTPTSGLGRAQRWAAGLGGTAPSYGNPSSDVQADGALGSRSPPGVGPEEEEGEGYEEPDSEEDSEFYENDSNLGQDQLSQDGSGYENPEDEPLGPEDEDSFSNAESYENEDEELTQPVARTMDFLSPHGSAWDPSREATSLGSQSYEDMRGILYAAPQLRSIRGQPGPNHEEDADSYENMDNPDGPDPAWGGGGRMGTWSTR

CD19 [6] = molecular target: T1, CD19; assay: flow cytometry, QuantiBRITE PE quantitation, MEC-1 (CLL) cells
CD19 [7] = molecular target: T1, CD19; assay: flow cytometry, QuantiBRITE PE quantitation, JVM-2 (MCL) cells
CD19 [8] = molecular target: T1, CD19; assay: cell-based or functional assay

Chain of CD20 (P11836 whole entry): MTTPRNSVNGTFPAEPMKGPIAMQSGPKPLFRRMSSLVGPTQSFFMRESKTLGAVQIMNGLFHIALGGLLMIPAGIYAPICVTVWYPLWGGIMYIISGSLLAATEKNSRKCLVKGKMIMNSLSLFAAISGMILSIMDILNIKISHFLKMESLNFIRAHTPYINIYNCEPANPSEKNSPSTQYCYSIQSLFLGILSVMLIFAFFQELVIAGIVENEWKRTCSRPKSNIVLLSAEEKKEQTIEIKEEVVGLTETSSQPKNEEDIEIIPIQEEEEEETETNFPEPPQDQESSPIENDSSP

Molecule: Rituximab (antibody)
- % specific killing, ADCC with NK cells, JVM-2 cells, E:T 0.1:1, 10 ug/ml antibody (CD20 [1]): 0.5%
- % specific killing, ADCC with NK cells, JVM-2 cells, E:T 3:1 and 6:1, 10 ug/ml antibody (CD20 [1]): 39% and 48%
- % specific killing, ADCC with NK cells, MEC-1 cells, E:T 0.1:1, 10 ug/ml antibody (CD20 [1]): 3%
- % specific killing, ADCC with NK cells, Toledo cells, E:T 0.1:1, 10 ug/ml antibody (CD20 [1]): 3%
- % specific killing, ADCC with NK cells, Toledo cells, the two higher E:T ratios, 10 ug/ml antibody (CD20 [1]): 60%

Molecule: Biolegend CD20-PE (Biolegend #302306; clone 2H7) (antibody)
- antibodies bound per cell (ABC) (antibodies bound per cell) (CD20 [2]): 28000
- antibodies bound per cell (ABC) (antibodies bound per cell) (CD20 [3]): 71300
- antibodies bound per cell (ABC) (antibodies bound per cell) (CD20 [4]): 15500

Molecule: Biolegend CD19-PE (Biolegend #302208; clone HIB19) (antibody)
- antibodies bound per cell (ABC) (antibodies bound per cell) (CD19 [5]): 35700
- antibodies bound per cell (ABC) (antibodies bound per cell) (CD19 [6]): 60900
- antibodies bound per cell (ABC) (antibodies bound per cell) (CD19 [7]): 26200

B1: MOR00208 (antibody, human IgG1, kappa, V domains shown)
VH: EVQLVESGGGLVKPGGSLKLSCAASGYTFTSYVMHWVRQAPGKGLEWIGYINPYNDGTKYNEKFQGRVTISSDKSISTAYMELSSLRSEDTAMYYCARGTYYYGTRVFDYWGQGTLVTVSS
VL: DIVMTQSPATLSLSPGERATLSCRSSKSLQNVNGNTYLYWFQQKPGQSPQLLIYRMSNLNSGVPDRFSGSGSGTEFTLTISSLEPEDFAVYYCMQHLEYPITFGAGTKLEIKR
- % specific killing, ADCC with NK cells, Toledo cells, the two higher E:T ratios, 10 ug/ml antibody (CD19 [8]): ~60%
- specific killing ratio compared to Rituximab, individual donor 296, JVM-2 cells, lowest E:T ratio (CD19 [8]): ≤ 20 fold
- specific killing ratio compared to Rituximab, individual donor 299, Toledo cells, lowest E:T ratio (CD19 [8]): ≤ 30 fold
- specific killing ratio normalized to Rituximab, JVM-2 cells, E:T 0.1:1, median of donors (CD19 [8]): 5.3 fold
- specific killing ratio normalized to Rituximab, Toledo cells, E:T 0.1:1, median of donors (CD19 [8]): 2.5 fold
- specific killing ratio over Rituximab, MEC-1 cells, E:T 0.1:1, average of 17 donors (CD19 [8]): 1.6 fold
